Assay: soluble on expression in E. coli; label from the status in PepcDB or PDB records

Sequence | soluble on expression in E. coli
MKRRCVFMRLSLLDYVPLFEGRTPNDALKHSIKLAQHAEKLGYLRYWVAEHHQVYSVVSSAPEIIMMSILEHTQHIRVGSGGVMLPHYSPYKVAEQFKIMEARHPQRIDMAIGRSPSFKNVNAALNENKNEKLPFNTQITDLLKYFNNDTTQDHRFKSLLATPMVTSFPQLYILGMSNRSAKLAAQRGLPFVIARMGQSETDLHEAISTYRKYFKAYHGEINNAKPYVILATFVVTASNLSRVKQLLHTLQLWLMRINYLNQPKSYPSIETAQNKHYSQRELEKLEKMKSKIIYGMPNDVAEQLTLLHQQFKVDEIIILPHVFGEDARMELIELIANELIPSCSRDEF | not soluble
MGSDKIHHHHHHMKVKIGDLTKIKTGKLDANVSSEDGKYPFFTCSKEPLKISTYSYDCECVLVAGNGDLNVKYYNGKFDAYQRTYIIEANGSGKLYMPYLYYFMEDYIDELRKQAIGGVIKYIKLANLTDALIELPSVDEQKSIVEILKKVKGILDKRNDEIRELDNLIKARFVEMFGDPRSNPFGFEKKRLKDTCKVITGNTPSRAIEEYYGDYIEWIKTDNIVSGILNPTQATESLSEKGMNVGRTVEKDSILMACIAGSIASIGRVCITDRTVAFNQQINAVVPEQYNILFLYVLFQMSKDYLVEDINMALKGILSKSKLEEKEFIIPPMDLQEQFSDFVKQVDKSKFDTMTFAPIYAIINLYLHTYFYQGRR | not soluble
MAGDPMQKVKSDILTHRGSHFDLGVQTAQWMQHTPLLKNREQEWKKRMPRFDIHIKETYDIFQTYAPQIWEEIRGMQEVLNLPTRQMILNFAHYRFTPLKNSGCTVYLGNDYMVRNYDYHPATYDGRYLLFQPNDGGLAQIGPTSRVTGRMDGMNEAGLAMGYNFMHRKHPGDGFVCYMIGRLVLQYCKDVPEAIKLLKEIPHRSSFSYIVMDKYLNHAIIEVTPRSIDVRYDHTCTNHFKLLTHENRNYTKESTERLDRLIKQTPAQLGKMDAFKLFNNPEFEIYSKLFKSWSGTIHTSMYEPQSLTAHITLGENKAPVEIDFQQWLNGESLNINELTGQIDTELTFATYLEHHHHHH | not soluble
MRRKIMMATLIVIAVNFIWSGQPVKACTRAVYIGPDNMVITGRTMDWKEDIQSNLYLFPRGIKRAGYNKGNTVEWISKYGSIVATGYDIGTCDGMNEKGLVASLLFLPESIYVRPNDTRPVMGISIWTQYVLDNFATVSEAVEELKKQTFRIDAPDMPNGSASTLHMAITDETGNSAVLEYIDGNLIIHEGKEYQVMTNSPRYDLQLAVNDYWKEVGGLNMLPGTNRSSDRFVRASFYIHAIPQTSDAKIAVPSVLSVMRNVSVPFGITTLDKPYISSTRWRSVSDQKNRVYYFESTLTPNLFWIDLHKVDFSPNASIKKLSLTHGEVYAGDVVKDFKDSRSFTFMFELPK | not soluble
MGSDKIHHHHHHSRSGEKAAQQLVDYFIYQEKPETFSQTFREPKVLAEHLQTSRQQFQKQFFNSLKEMNAEVTETEAQKLSAELLAQVKKKASYQLVATKELNGQATITFQIKGLDFVTAIEDTTTALLQQTQQATQALDMQHTLAVLKKEIQQINVSHEPVELPLTVKQVEGQWYLPAVEQLRLNQFFLAFVTGKEDTDQLTEALDTILTQAEQKVVTADERTAIAGN | not soluble
MNIKYSGIENRFETAILKKNGVRSGFVSFAPNLAAVKLNDYAKVRKRITKTKQKADIVIVMFHGGAEGKQAEHLPFDTEIFYGENRGNVVEFARLAVDSGADVVFGQGPHVTRAVELYRDRFISYSGGNFATYGAINTSGISGIAPIFKIITDKQGRFVSGNIIPITQVGDKIPKIDPEKTVIGRIIYLNRSDFPKGNGLDVSPDGSITRR | not soluble
MGSDKIHHHHHHMDVIIDKNSGYCFGVEFAIQMAEDEMATGEPLFCLGDIVHNSMEVERLAKKGLKIIDREELKKLSDCKVLIRAHGEPPETYQLALENNIELVDASCPVVLKLQNRVKASFDAIDSKDGQIVIYGQEGHAEVIGIAGQTGDKAIVITTEKDLDKIDFEKPVTLYSQTTKSTQGFYKMKDLIEARVAEAGKNVDENFEYNDSICRQVSNREPQLRKFSKEFDVVIFVSGKKSSNGKALYGVCKQENERSYFVENETEIEPSWIRATDNVGICGATSTPMWLMEKVQNYIQAHSWN | not soluble
MPVAATNSETAMQQVLDNLGSLPSATGAAELDLIFLRGIMESPIVRSLAKAHERLEETKLEAVRDNNLELVQEILRDLAQLAEQSSTAAELAHILQEPHFQSLLETHDSVASKTYETPPPSPGLDPTFSNQPVPPDAVRMVGIRKTAGEHLGVTFRVEGGELVIARILHGGMVAQQGLLHVGDIIKEVNGQPVGSDPRALQELLRNASGSVILKILPSYQEPHLPRQVFVKCHFDYDPARDSLIPCKEAGLRFNAGDLLQIVNQDDANWWQACHVEGGSAGLIPSQLLEEKRKAFVKRDLELTPNSGTLCGSLSGKKKKRMMYLTTKNAEFDRHELLIYEEVARMPPFRRKTLVLIGAQGVGRRSLKNKLIMWDPDRYGTTVPYTSRRPKDSEREGQGYSFVSRGEMEADVRAGRYLEHGEYEGNLYGTRIDSIRGVVAAGKVCVLDVNPQAVKVLRTAEFVPYVVFIEAPDFETLRAMNRAALESGISTKQLTEADLRRTVEESSRIQRGYGHYFDLCLVNSNLERTFRELQTAMEKLRTEPQWVPVSWVY | soluble
MKICLIDETGAGDGALSVLAARWGLEHDEDNLMALVLTPEHLELRKRDEPKLGGIFVDFVGGAMAHRRKFGGGRGEAVAKAVGIKGDYLPDVVDATAGLGRDAFVLASVGCRVRMLERNPVVAALLDDGLARGYADAEIGGWLQERLQLIHASSLTALTDITPRPQVVYLDPMFPHKQKSALVKKEMRVFQSLVGPDLDADGLLEPARLLATKRVVVKRPDYAPPLANVATPNAVVTKGHRFDIYAGTPV | not soluble
MKKELLTRFMEKRIVELKKEQRNGTAHVYQSTLNRLKNFMNGREITFSQLTPEWLALFEQKLLADQLKWNTISTYMRMLRSVYNQALERGVATYVPRLFNKVHTGIDCPVKRAVSPEVICRLMTDRKPLPGKLAFSRDLFVLLFLLRGMPFVDLAFLRRCDLQGNVITYHRRKTSRKLTVVVGKEAMEIIQKYMYAIPDSPYLFPIIQNPGKDEYGQYARMLRLQNYRLTQVANILGIRDRLSTYTARHTWATTALRQNYNSSLICDAMGHSSVKVTETYFQPYRDDEVNRMNSSLITYILSKKKRGTDKKIRS | not soluble
MSPDKQAAALPRRERNRQAAAASPENSRGKGRRGQRGKNRGCVLTAIHLNVTDLGLGYETKEELIFRYCSGSCEAAETMYDKILKNLSRSRRLTSDKVGQACCRPVAFDDDLSFLDDSLVYHILRKHSAKRCGCI | soluble
MGMPEEALKIYQELLEIEKELGNEREIALTLANIAVVKDELGEADEAIKLMSEAKDIFEKINDTKNYHIALIDLAHFYYELGEYEKAMQIIEEVLRNPLDDEIEVHGRLVESEIHSALENYKKAALSLRNALLRSGDDEYLFETAFEAVLEFIEELYNEEKLEHHHHHH | not soluble
MGSDKIHHHHHHMTLGTKLSVDQEYLKSFSEKHQEPAWLKNLRLQALEQAEDLPMPKPDKTKITNWNFTNFAKHTVDNEPLSSLEDLTDEVKALIDIENEDKTLYVQRDQTPAHLSLSQELKDKGVIFTDILTAAREHSDLVEKYFMKDGVKVDEHKLTALHAALVNGGAFLYVPKNVQVETPVQAVYVHESNDTALFNHVLIVAEDHSSVTYVENYISTVNPKDAVFNIISEVITGDNASVTYGAVDNLSSGVTTYVNRRGAARGRDSKIEWALGLMNDGDTISENTTNLYGDGTYGDTKTVVVGRGEQTENFTTQIIHFGKASEGYILKHGVMKDSASSIFNGIGKIEHGASKANAEQESRVLMLSEKARGDANPILLIDEDDVTAGHAASVGRVDPIQLYYLMSRGIPKEEAERLVIYGFLAPVVNELPIEGVKKQLVSVIERKVK | not soluble
MAHHHHHHMGDESNAIGQEALLYDKMFRVMRTVGEMMCDRKYQVADKIIPSSVEEFKDWYTDPREGVIYRDRMTVPCERIGVSQRSRAMVFFSEGLSMETMKRYHTQASEANCDRVIIVVQGRINAIVKRHVEDINRSSLGLKIQLFDEDDLVVNITHHELVPKHTQLEDEEVKEMLQAHALELSALPRILSTDPVAAYLGLERGRVVRIERKSMSAGFYVTYRQVV | not soluble
MKLLKDLLVDRKEFEDWKNNLTWARDGTLYLTTFPDISIGQPKYAKDINCNSKNLFHVKEFPLEFENKLDFELAQQNGLLNSQPVCYPRVCKPSPIDDWMAVLSNNGNVSVFKDNKMLTNLDSKGNLSSRTYHCFEWNPIESSIVVGNEDGELQFFSIRKNSENTPEFYFESSIRLSDAGSKDWVTHIVWYEDVLVAALSNNSVFSMTVSASSHQPVSRMIQNASRRKITDLKIVDYKVVLTCPGYVHKIDLKNYSISSLKTGSLENFHIIPLNHEKESTILLMSNKTSYKVLLEDELHVTADNIIAPYLEKKFKKWSTIWNEFNNYETTLVIHGISLSPDGYSIAIVYDMERVAFKYKIASEQSFNIMFAPLYHTWTISERAVGLAWYQTYQIYNQSLPKLPENFSMNKKLLNGNYPISLDFQSYLNALMKSEEMRIIMFLNMTIDKPSILSFLEALYEYAINKKSELTNSFDLACVLSIAAILKREAPIYNGTLLMKNSFLEETFNLESFTADPETVTSTTNNTWKRCGVTLLPILTTHVKICPVSKQRVIDIKRDDLNDYGWFTRGLLERFNEISVYCGTTLEVM | soluble
GFTPHDSAPYGALDMADFEFEQMFTDALGIDEYGG | soluble
MAYTLHKMTKKLHKQKFFQFAAFIQKKFDSPLFKAIRKRSCHWSDISNHNDNYDLTVASYNVHKCIGVDKVFNPTRIVQVITELQVDILALQEADKRFGERIGLIDLQLLKAETGLIPVPLNTMSPHGHGWHGNALFLRKGHVCDTLQITLPGIEPRGAVIADLEMEVGPIRVIAAHFGLLRHSRNQQTKMLLSLLQKRPLMPTLLIGDFNEWRIGKGSSLNHFAPYFDSTVGTVPSFPSRFPLLALDRILAFPHQLVIRIENHHSPLARIASDHLPIKAYLDLSHAMATLKK | not soluble
MNKVLINDTTLRDGEQAAGVVFTLEEKVAIAKFLDTIGVPELEVGIPAMGEEEMRAICAISNLGLKANLLAWNRAVISDIKASVACGMERVHIAIPVSGIQIAAKFHGQWRVSLQRLKDCISFAVDQGLWVAVGGEDSSRADENFLLDVALYAQEWGASRFRFCDTVGVLDPFTTYGKVKLLVSALTIPVEVHTHNDFGMATANALAGIKAGASSVNTTVIGLGERAGNAALEEVVMAIKRIYGVDMGIDTPRLLELSQLVAAASGANVPPWKAIVGENTFAHESGIHAHGVLQNPDTYEPFAPEEVGWERRLVVGKHSGRHSVSNLLEQHGLEHHHHHH | soluble
MVHDTFMKMPEVRRRRQPTHVLVAGGNQGLGNMTAFLRAARTSTLFRYSVLCGANKQLYHEIASWQLPHIRPLPYINSPEEMNQLYDEADAVITKPGGVTISELLHKRIPIFTIDCLPGQERINWQYLRRNGLIYHLAEPGNGERKMIRLLTDDVEKNRFFRRVSDYFAGVEKTGLEHHHHHH | not soluble
MSLTARVIALDLDGTLLTPHKTLLPSSLDALSRAKEAGFQLIIVTGRHHVAIHPFYQALALETPAICCNGTYLYDYQAKTVLDADPMPVDKALQLIDLLDEHQIHGLMYVDDAMLYEHPTGHVVRTSRWAQTLPPEQRPTFAQVSSLAQAARDVNAVWKFALTDEDIPKLQRFGQHVEQALGLECEWSWHDQVDIARKGNSKGKRLTQWIEAQGGSMKNVIAFGDNYNDISMLEAAGTGVAMGNADEAVKARADVVIGDNTTDSIAKFIYTHLLEGHHHHHH | soluble
